The values below come from PMC4156074 (2014).

This assay addresses Full-length human plasma kallikrein, activated form (human, UniProt P03952 20-390; P03952 391-638). As to the kind of experiment: apparent Ki.

Sequence of Full-length human plasma kallikrein, activated form (P03952 20-390, chain 1 of 2): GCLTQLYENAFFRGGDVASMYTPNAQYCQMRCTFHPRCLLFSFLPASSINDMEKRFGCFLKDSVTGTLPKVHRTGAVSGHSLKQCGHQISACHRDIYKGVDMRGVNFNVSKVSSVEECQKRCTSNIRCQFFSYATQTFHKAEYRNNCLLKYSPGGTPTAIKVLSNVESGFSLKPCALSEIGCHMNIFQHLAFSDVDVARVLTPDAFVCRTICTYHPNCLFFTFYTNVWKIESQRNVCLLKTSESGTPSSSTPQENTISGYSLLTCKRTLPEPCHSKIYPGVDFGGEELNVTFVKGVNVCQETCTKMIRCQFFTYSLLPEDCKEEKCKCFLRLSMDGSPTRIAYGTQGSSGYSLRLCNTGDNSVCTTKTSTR
Sequence of Full-length human plasma kallikrein, activated form (P03952 391-638, chain 2 of 2): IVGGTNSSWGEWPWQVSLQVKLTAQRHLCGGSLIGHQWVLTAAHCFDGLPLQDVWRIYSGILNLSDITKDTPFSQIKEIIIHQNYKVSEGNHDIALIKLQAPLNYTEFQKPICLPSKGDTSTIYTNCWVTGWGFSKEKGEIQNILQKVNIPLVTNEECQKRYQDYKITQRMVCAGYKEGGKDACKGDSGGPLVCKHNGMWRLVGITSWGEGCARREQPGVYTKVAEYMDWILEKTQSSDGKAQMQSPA

B1: Fab M0162-A04 (lead Fab, parent of the affinity maturation) (Fab, V domains shown)
VH: EVQLLESGGGLVQPGGSLRLSCAASGFTFSHYIMMWVRQAPGKGLEWVSGIYSSGGITVYADSVKGRFTISRDNSKNTLYLQMNSLRAEDTAVYYCAYRRTGIPRRDAFDIWGQGTMVTVSS
VL: DIQMTQSPSTLSASVGDRVTITCRASQSISSWLAWYQQKPGKAPNLLIYKASTLESGVPSRFSGSGSGTEFTLTISSLQPDDFATYYCQQYNTYWTFGQGTKVEIK
With B1, the Ki came to 5.39 nM.
